These substances were tested against membrane IgE C2C4 expressed on Ramos cells (in the presence of Ig-alpha and Ig-beta) (human) (UniProt P01854) (assay: flow cytometry, MFI on C2C4-expressing Ramos cells divided by MFI on non-induced cells).
For “positive control mAB anti-IgE Le27 (antibody)”, the MFI ratio was > 5.
In the case of “Negative controls (right sample block, starting with no primary AB)”, the MFI ratio is reported as 1.
“positive control mAB anti-IgE BSW17 (antibody)” was tested, and the MFI ratio was > 5.

Source: patent US20180186896A1
